Source: patent publication US20080058263A1 (published 2008)

Legend:
Assay in all cases: receptor-Fc IP
VEGFR-1-Fc = molecular target: T1, VEGFR-1-Fc (UniProt P17948 27-338)
T1 construct: domain: first three Ig domains; expressed in Drosophila S2 cells, purified on Protein A sepharose; also called VEGFR-1-Fc fusion protein; not shown: Fc fragment from the Signal-pIgPlus vector
Procedure, shortened: (§1)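 fusion protein at 400 ng/ml in an IP mix (PBS, 1.5% BSA, 0.06% Tween 20, 3 μg/ml heparin) was combined with sample supernatant at a 1:2 ratio. Bound ligand captured by immunoprecipitation with pentahistidine antibody.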

VEGFR-2-Fc = molecular target: T2, VEGFR-2-Fc (UniProt P35968 20-322)
T2 construct: domain: first 3 Ig domains; conditioned supernatant of 293T cells; also called VEGFR-2-Fc fusion protein; not shown: Fc fragment of the pIg vector
Procedure, shortened: as §1

VEGFR-3-Fc = molecular target: T3, VEGFR-3-Fc (UniProt P35916 25-328)
T3 construct: domain: first three Ig domains; conditioned supernatant of 293T cells; also called VEGFR-3-Fc fusion protein; not shown: Fc fragment of the pIg vector
T3 sequence (looked up): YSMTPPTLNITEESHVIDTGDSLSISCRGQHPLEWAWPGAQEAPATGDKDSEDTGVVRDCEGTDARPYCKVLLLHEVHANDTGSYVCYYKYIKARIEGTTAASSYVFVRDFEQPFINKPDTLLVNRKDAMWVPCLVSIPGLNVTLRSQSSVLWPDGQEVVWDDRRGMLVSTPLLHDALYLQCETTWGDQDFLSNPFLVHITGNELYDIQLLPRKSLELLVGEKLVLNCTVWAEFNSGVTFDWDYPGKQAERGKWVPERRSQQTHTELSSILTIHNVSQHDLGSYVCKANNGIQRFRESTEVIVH
Procedure, shortened: as §1

Measured: binding result

T1 sequence (P17948 27-338): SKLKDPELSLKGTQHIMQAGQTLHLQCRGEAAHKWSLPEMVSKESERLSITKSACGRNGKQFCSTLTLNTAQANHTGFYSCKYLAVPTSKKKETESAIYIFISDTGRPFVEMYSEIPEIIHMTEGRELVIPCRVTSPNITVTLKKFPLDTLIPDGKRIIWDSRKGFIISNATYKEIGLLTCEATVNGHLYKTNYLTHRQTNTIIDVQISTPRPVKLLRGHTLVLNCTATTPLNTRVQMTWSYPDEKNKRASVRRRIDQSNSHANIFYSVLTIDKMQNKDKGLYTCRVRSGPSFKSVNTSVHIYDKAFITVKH
T2 sequence (P35968 20-322): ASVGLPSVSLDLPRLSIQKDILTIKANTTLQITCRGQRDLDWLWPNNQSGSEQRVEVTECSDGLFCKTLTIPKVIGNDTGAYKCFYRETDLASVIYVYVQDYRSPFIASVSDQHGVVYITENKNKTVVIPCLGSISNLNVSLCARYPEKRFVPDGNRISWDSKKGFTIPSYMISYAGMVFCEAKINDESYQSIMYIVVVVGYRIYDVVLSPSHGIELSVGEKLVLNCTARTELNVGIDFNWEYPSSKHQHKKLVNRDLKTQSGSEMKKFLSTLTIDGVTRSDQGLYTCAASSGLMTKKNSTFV

B1: 52-1 (ligand)
chain: AHYNTEILKSIDNEWRKTQCMPIETLVDIFQEFGVATNTFFKPPCVSVYRCGGCCNDEGLECVPTEESNITMQIMRIKPHQGQHIGEMSFLQHNKCECRPKKD
no binding: VEGFR-1-Fc | VEGFR-2-Fc | VEGFR-3-Fc

B2: 52-3 (ligand)
chain: AHYNTEILKSIDNEWRKTQCMPIETLVDIFQEFGVATNTFFKPPCVSVYRCGGCCNSEGLQCVPTEESNITMQIMRIKPHQGQHIGEMSFLQHNKCECRPKKD
no binding: VEGFR-1-Fc | VEGFR-2-Fc | VEGFR-3-Fc

B3: 52-6 (ligand)
chain: AHYNTEILKSIDNEWRKTQCMPIETLVDIFQEFGVATNTFFKPPCVSVYRCGGCCNDEGLECMNTSTSYLSKTLFEIKPHQGQHIGEMSFANHTSCRCMSKLD
no binding: VEGFR-1-Fc | VEGFR-2-Fc | VEGFR-3-Fc

B4: 52-7 (ligand)
chain: AHYNTEILKSIDNEWRKTQCMPIETLVDIFQEFGVATNTFFKPPCVSVYRCGGCCNSEGLQCVPTEESNITMQIMRIKPHQGQHIGEMSFANHTSCRCMSKLD
no binding: VEGFR-1-Fc | VEGFR-2-Fc | VEGFR-3-Fc

B5: 52-8 (ligand)
chain: AHYNTEILKSIDNEWRKTQCMPIETLVDIFQEFGVATNTFFKPPCVSVYRCGGCCNSEGLQCMNTSTSYLSKTLFEIKPHQGQHIGEMSFANHTSCRCMSKLD
no binding: VEGFR-1-Fc | VEGFR-2-Fc | VEGFR-3-Fc

B6: 31-2 (ligand)
chain: GQNHHEVVKSIDNEWRKTQCMPIETLVDIFQEYPDEIEYIFKPSCVPLMRCGGCCNDEGLECVPTEESNITMQIMRIKPHQGQHIGEMSFANHTSCRCMSKLD
no binding: VEGFR-1-Fc | VEGFR-2-Fc | VEGFR-3-Fc

B7: 21-15 (ligand)
chain: AHYNTEILKSIDNEWRKTQCMPREVCIDVGKEYPDEIEYIFKPSCVPLMRCGGCCNSEGLQCVPTEESNITMQIMRITVPLSQGPKPVTISFANHTSCRCMSKLD
no binding: VEGFR-1-Fc | VEGFR-2-Fc | VEGFR-3-Fc

B8: 53-5 (ligand)
chain: AHYNTEILKSIDNEWRKTQCMPIETLVDIFQEYPDEIEYIFKPPCVSVYRCGGCCNDEGLECVPTEESNITMQIMRIKPHQGQHIGEMSFANHTSCRCMSKLD
no binding: VEGFR-1-Fc | VEGFR-2-Fc | VEGFR-3-Fc

B9: 53-9 (ligand)
chain: AHYNTEILKSIDNEWRKTQCMPIETLVDIFQEYPDEIEYIFKPPCVSVYRCGGCCNDEGLECVPTEESNITMQIMRITVPLSQGPKPVTISFLQHNKCECRPKKD
no binding: VEGFR-1-Fc | VEGFR-2-Fc | VEGFR-3-Fc

B10: 53-11 (ligand)
chain: AHYNTEILKSIDNEWRKTQCMPIETLVDIFQEYPDEIEYIFKPPCVSVYRCGGCCNSEGLQCVPTEESNITMQIMRITVPLSQGPKPVTISFLQHNKCECRPKKD
no binding: VEGFR-1-Fc | VEGFR-2-Fc | VEGFR-3-Fc

B11: 53-13 (ligand)
chain: AHYNTEILKSIDNEWRKTQCMPIETLVDIFQEYPDEIEYIFKPPCVSVYRCGGCCNDEGLECVPTEESNITMQIMRITVPLSQGPKPVTISFANHTSCRCMSKLD
no binding: VEGFR-1-Fc | VEGFR-2-Fc | VEGFR-3-Fc

B12: 53-15 (ligand)
chain: AHYNTEILKSIDNEWRKTQCMPIETLVDIFQEYPDEIEYIFKPPCVSVYRCGGCCNSEGLQCVPTEESNITMQIMRITVPLSQGPKPVTISFANHTSCRCMSKLD
no binding: VEGFR-1-Fc | VEGFR-2-Fc | VEGFR-3-Fc

B13: 61-2 (ligand)
chain: GQNHHEVVKFMDVYQRSYCHPREVCIDVGKEYPDEIEYIFKPSCVPLMRCGGCCNDEGLECMNTSTSYLSKTLFEIKPHQGQHIGEMSFLQHNKCECRPKKD
no binding: VEGFR-1-Fc | VEGFR-2-Fc | VEGFR-3-Fc

B14: 61-10 (ligand)
chain: GQNHHEVVKFMDVYQRSYCHPREVCIDVGKEYPDEIEYIFKPSCVPLMRCGGCCNDEGLECMNTSTSYLSKTLFEITVPLSQGPKPVTISFLQHNKCECRPKKD
no binding: VEGFR-1-Fc | VEGFR-2-Fc | VEGFR-3-Fc

B15: 22-1 (ligand)
chain: AHYNTEILKSIDNEWRKTQCMPREVCIDVGKEFGVATNTFFKPPCVSVYRCGGCCNDEGLECVPTEESNITMQIMRIKPHQGQHIGEMSFLQHNKCECRPKKDLVFEQKLISEEDLNSAVDHHHHHH
no binding: VEGFR-1-Fc | VEGFR-2-Fc | VEGFR-3-Fc

B16: 61-12 (ligand)
chain: GQNHHEVVKFMDVYQRSYCHPREVCIDVGKEYPDEIEYIFKPSCVPLMRCGGCCNSEGLQCMNTSTSYLSKTLFEITVPLSQGPKPVTISFLQHNKCECRPKKD
no binding: VEGFR-1-Fc | VEGFR-2-Fc | VEGFR-3-Fc

B17: 61-16 (ligand)
chain: GQNHHEVVKFMDVYQRSYCHPREVCIDVGKEYPDEIEYIFKPSCVPLMRCGGCCNSEGLQCMNTSTSYLSKTLFEITVPLSQGPKPVTISFANHTSCRCMSKLD
no binding: VEGFR-1-Fc | VEGFR-2-Fc | VEGFR-3-Fc

B18: 62-3 (ligand)
chain: GQNHHEVVKFMDVYQRSYCHPREVCIDVGKEFGVATNTFFKPPCVSVYRCGGCCNSEGLQCVPTEESNITMQIMRIKPHQGQHIGEMSFLQHNKCECRPKKD
no binding: VEGFR-1-Fc | VEGFR-2-Fc | VEGFR-3-Fc

B19: 62-4 (ligand)
chain: GQNHHEVVKFMDVYQRSYCHPREVCIDVGKEFGVATNTFFKPPCVSVYRCGGCCNSEGLQCMNTSTSYLSKTLFEIKPHQGQHIGEMSFLQHNKCECRPKKD
no binding: VEGFR-1-Fc | VEGFR-2-Fc | VEGFR-3-Fc

B20: 62-5 (ligand)
chain: GQNHHEVVKFMDVYQRSYCHPREVCIDVGKEFGVATNTFFKPPCVSVYRCGGCCNDEGLECVPTEESNITMQIMRIKPHQGQHIGEMSFANHTSCRCMSKLD
no binding: VEGFR-1-Fc | VEGFR-2-Fc | VEGFR-3-Fc
